Earlier results on two molecules are cited in patent US20250027955A1, “ETHYLENE RECEPTORS AND BINDING DOMAINS WITH MODIFIED BINDING KINETICS FOR ETHYLENE” (Trustees of Dartmouth College, priority 2022, published 2025).

By Kd is commonly meant the equilibrium constant for the complex coming apart.

The target in one series is ETR1 (Arabidopsis thaliana, UniProt P49333). Conditions: read-out: calculated dissociation constant (Kd); ethylene binding to ETR1; cited from earlier work.
A further series relates to plants. Conditions: in vivo; cited from earlier work.
For series [1] the following is noted: previously reported; cited from earlier work.
Series [2] has as its system Arabidopsis seedlings, etr1 etr2 ein4 background. The following applies: previously reported; cited from earlier work.
The conditions of series [3]: previously reported; cited from earlier work. The source holds these as a separate data set.

Chain of ETR1 (P49333 whole entry): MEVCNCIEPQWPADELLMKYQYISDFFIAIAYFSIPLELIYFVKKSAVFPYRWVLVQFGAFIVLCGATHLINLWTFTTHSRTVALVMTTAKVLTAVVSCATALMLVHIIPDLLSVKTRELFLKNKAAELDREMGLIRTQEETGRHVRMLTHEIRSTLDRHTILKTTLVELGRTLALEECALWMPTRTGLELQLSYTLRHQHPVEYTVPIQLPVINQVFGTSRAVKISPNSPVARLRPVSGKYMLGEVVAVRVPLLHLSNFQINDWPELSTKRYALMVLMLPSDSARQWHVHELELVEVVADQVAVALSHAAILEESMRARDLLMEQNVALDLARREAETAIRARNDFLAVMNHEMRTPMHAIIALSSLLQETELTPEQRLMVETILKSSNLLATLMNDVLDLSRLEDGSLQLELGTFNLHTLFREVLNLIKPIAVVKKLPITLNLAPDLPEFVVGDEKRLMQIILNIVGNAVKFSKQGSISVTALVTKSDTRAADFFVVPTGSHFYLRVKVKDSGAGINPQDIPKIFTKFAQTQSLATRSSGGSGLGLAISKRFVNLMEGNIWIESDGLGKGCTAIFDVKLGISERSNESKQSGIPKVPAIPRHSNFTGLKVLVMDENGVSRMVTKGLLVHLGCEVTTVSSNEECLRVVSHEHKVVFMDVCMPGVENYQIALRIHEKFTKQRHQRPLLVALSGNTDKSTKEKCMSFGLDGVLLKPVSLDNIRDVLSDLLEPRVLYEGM

As to `C=C` [Ethylene, ethylene], on ETR1, the Kd was 2.4 nM. Also, the “ethylene concentration plants respond to (as low as)” value with plants is on record as 0.2 nL L^−1.

B1: etr1-1: well-characterized ETR1 missense mutation Cys65Tyr; ethylene-insensitive control (protein, UniProt P49333 1-738, looked up, variant C65Y)
Ethylene receptor 1: MEVCNCIEPQWPADELLMKYQYISDFFIAIAYFSIPLELIYFVKKSAVFPYRWVLVQFGAFIVLYGATHLINLWTFTTHSRTVALVMTTAKVLTAVVSCATALMLVHIIPDLLSVKTRELFLKNKAAELDREMGLIRTQEETGRHVRMLTHEIRSTLDRHTILKTTLVELGRTLALEECALWMPTRTGLELQLSYTLRHQHPVEYTVPIQLPVINQVFGTSRAVKISPNSPVARLRPVSGKYMLGEVVAVRVPLLHLSNFQINDWPELSTKRYALMVLMLPSDSARQWHVHELELVEVVADQVAVALSHAAILEESMRARDLLMEQNVALDLARREAETAIRARNDFLAVMNHEMRTPMHAIIALSSLLQETELTPEQRLMVETILKSSNLLATLMNDVLDLSRLEDGSLQLELGTFNLHTLFREVLNLIKPIAVVKKLPITLNLAPDLPEFVVGDEKRLMQIILNIVGNAVKFSKQGSISVTALVTKSDTRAADFFVVPTGSHFYLRVKVKDSGAGINPQDIPKIFTKFAQTQSLATRSSGGSGLGLAISKRFVNLMEGNIWIESDGLGKGCTAIFDVKLGISERSNESKQSGIPKVPAIPRHSNFTGLKVLVMDENGVSRMVTKGLLVHLGCEVTTVSSNEECLRVVSHEHKVVFMDVCMPGVENYQIALRIHEKFTKQRHQRPLLVALSGNTDKSTKEKCMSFGLDGVLLKPVSLDNIRDVLSDLLEPRVLYEGM
On to B1, for which, in series [1], the “copper cofactor binding (previous studies)” value is recorded as “no longer binds the copper cofactor”. The “ethylene sensitivity of plants (previous studies)” value in series [2] is “confers dominant ethylene insensitivity”. Also, the “ethylene binding (previous studies)” value in series [3] was “no longer binds ethylene”.
